Data published in patent US6656735, “Method for identification of target genes of transcription factors” (GSF Forschungszentrum Fuer Umwelt Und Gesundheit GmbH).

Key:
[1] = target: T1, Engrailed 2 full length (En2, ChEn2) (Gallus gallus, UniProt Q05917 Q05917:1-289); test: EMSA; two shifted complexes; 20 mM Tris-HCl pH 7.9, 35 mM KCl, 2.5 mM MgCl2, poly-dIdC, on ice; settings: label: 32P
T1 sequence: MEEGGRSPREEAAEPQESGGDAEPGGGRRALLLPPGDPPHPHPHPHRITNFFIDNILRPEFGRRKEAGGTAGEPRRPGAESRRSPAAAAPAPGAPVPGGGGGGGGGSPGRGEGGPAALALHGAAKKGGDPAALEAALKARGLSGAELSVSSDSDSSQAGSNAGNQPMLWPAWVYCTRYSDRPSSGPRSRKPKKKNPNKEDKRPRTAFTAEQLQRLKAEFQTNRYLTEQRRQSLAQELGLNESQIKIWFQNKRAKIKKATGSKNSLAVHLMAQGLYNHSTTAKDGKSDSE

[2] = target: T1, Engrailed 2 full length (En2, ChEn2); test: EMSA; two shifted complexes; no ATTA core; 20 mM Tris-HCl pH 7.9, 35 mM KCl, 2.5 mM MgCl2, poly-dIdC, on ice; settings: label: 32P
[3] = target: T2, EnHD (Engrailed 2 homeodomain, 60 aa) (Gallus gallus, UniProt Q05917 Q05917:200-259); test: EMSA; four complexes with 10 to 100 ng EnHD; fragment with six NP6 copies; settings: tags: E. coli pET-3a, heparin-sepharose purified, no tag stated; label: 32P
T2 sequence: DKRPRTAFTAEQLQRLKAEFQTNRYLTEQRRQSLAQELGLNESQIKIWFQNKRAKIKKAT
Procedure: FIGS. 2A, 2B and 2C: Bacterially produced EnHD binds DNA and is efficiently internalized into cells in culture. (A) Polyacrylamide gel electrophoresis is of EnHD purified from *E. coli* extracts (Coomassie staining). (B) Band shift assay, performed by incubating 0.5 ng ^32P-ATP-labeled NP6 oligonucleotides with increasing amounts (0, 10, 20, 50 and 100 ng) of purified EnHD. (C) ES cells (upper Pannels) or GMA24FIA (lower Pannels) were incubated for 2 hrs. with FITC-EnHD (300 ng/ml) (left) or FITC alone (right).
The protocol described in FIG. 1 requires the EnHD added to the culture medium to be internalized by a large number of ES cells. EnHD was produced in E. coli and purified on heparin sepharose. […] To test the binding properties of EnHD, gel shift experiments were performed using a DNA fragment containing six copies of the NP6 site (TCAATTAAAT) (SEQ ID NO:3) known to bind Drosophila Engrailed.

B1: BPAG1e promoter oligonucleotide -2225 to -2180 (dsDNA)
DNA 1: CTCAAATAATTAGTCATTAAAAAAAATAAAGGCATATGAGCCAGCCT
DNA 2: AGGCTGGCTCATATGCCTTTATTTTTTTTAATGACTAATTATTTGAG
B1: binds [1].

B2: BPAG1e promoter oligonucleotide -694 to -665 (dsDNA)
DNA 1: CGCAGAATATTGGCTCAGTAACTAAGTGTG
DNA 2: CACACTTAGTTACTGAGCCAATATTCTGCG
B2: binds [2].

B3: NP6 site, six copies (dsDNA)
DNA 1: TCAATTAAAT
DNA 2: ATTTAATTGA
B3: binds [3].
